Measurements published in paper PMC3662786, “miR172b Controls the Transition to Autotrophic Development Inhibited by ABA in Arabidopsis”.

How the values were obtained:
Details in all cases: protein: recombinant; tags: MBP fusion; label: 3' biotin; blunt
[1] = biological target: T1, MBP-SNZ (Arabidopsis thaliana, UniProt Q6PV67 1-325); test: EMSA; poly(dI-dC), 5 mM MgCl2; LightShift EMSA binding buffer, 50 ng poly(dI-dC), 2.5% glycerol, 0.06% NP-40, 5 mM MgCl2, 19 mg BSA (so in the source), 28 ug protein, 5 pmol probe, 30 min room temperature; pH and salt not given
[2] = biological target: T1, MBP-SNZ; test: EMSA; poly(dI-dC), 5 mM MgCl2; unlabeled probe (50x, 250x) inhibited binding; LightShift EMSA binding buffer, 50 ng poly(dI-dC), 2.5% glycerol, 0.06% NP-40, 5 mM MgCl2, 19 mg BSA (so in the source), 28 ug protein, 5 pmol probe, 30 min room temperature; pH and salt not given
[3] = biological target: T1, MBP-SNZ; test: EMSA; poly(dI-dC), 5 mM MgCl2; unlabeled RAV1-A probe reduced binding; LightShift EMSA binding buffer, 50 ng poly(dI-dC), 2.5% glycerol, 0.06% NP-40, 5 mM MgCl2, 19 mg BSA (so in the source), 28 ug protein, 5 pmol probe, 30 min room temperature; pH and salt not given

T1 sequence (Q6PV67 whole entry): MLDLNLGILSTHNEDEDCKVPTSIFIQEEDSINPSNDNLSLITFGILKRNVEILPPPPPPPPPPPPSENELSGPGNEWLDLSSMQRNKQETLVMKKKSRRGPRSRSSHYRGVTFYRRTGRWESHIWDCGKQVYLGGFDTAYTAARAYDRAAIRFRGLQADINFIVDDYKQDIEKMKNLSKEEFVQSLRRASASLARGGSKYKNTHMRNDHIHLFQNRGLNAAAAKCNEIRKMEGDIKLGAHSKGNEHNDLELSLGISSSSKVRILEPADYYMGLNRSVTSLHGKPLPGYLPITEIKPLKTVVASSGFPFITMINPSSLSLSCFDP

B1: mRAV1-A probe (dsDNA)
DNA 1: CACCTGCGGTACGGTACGGTACGGTACGGTACGGTACACCTG
DNA 2: CAGGTGTACCGTACCGTACCGTACCGTACCGTACCGCAGGTG
- binding result [1]: no binding

B2: ABI5 probe (dsDNA)
DNA 1: TTAACAACTGCATCATATACACAACAATAAC
DNA 2: GTTATTGTTGTGTATATGATGCAGTTGTTAA
- binding result [2]: binds

B3: wRAV1-A probe (dsDNA)
DNA 1: CACCTGCAACACAACACAACACAACACAACACAACACACCTG
DNA 2: CAGGTGTGTTGTGTTGTGTTGTGTTGTGTTGTGTTGCAGGTG
- binding result [3]: binds
